{"source": "patent US20110112172", "key": {"[1]": {"target": "human SDF-1 alpha (CXCL12) (Homo sapiens) (UniProt P48061)", "sequence (P48061 22-89)": "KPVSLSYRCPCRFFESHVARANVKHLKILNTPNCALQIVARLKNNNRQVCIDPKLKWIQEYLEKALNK", "assay": "SPR", "conditions": "L-RNA, 37 C"}, "[2]": {"target": "biotinylated human D-SDF-1 (mirror-image CXCL12) (Homo sapiens) (UniProt P48061)", "sequence (P48061 22-92)": "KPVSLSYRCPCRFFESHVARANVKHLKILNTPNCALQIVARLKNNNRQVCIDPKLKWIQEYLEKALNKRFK", "assay": "pulldown", "conditions": "37 C"}}, "data": [{"sequence": "GCUGUGAAAGCAACAUGUCAAUGAAAGGUAGCCGCAGC [192-A10-001 Spiegelmer]", "values": [{"measurement": "Kd", "setting": "[1]; 1 mM Mg, 1 mM Ca", "result": 1, "unit": "nM"}]}, {"sequence": "GAGAUAGGGGUUAGGGCUUAAAGUCGGCUGAUUCUC [190-A3-004 aptamer (D)]", "values": [{"measurement": "Kd", "setting": "[2]; same affinity as 190-A3-001", "result": 4.6, "unit": "nM"}]}, {"sequence": "GUGCUGCGGGGGUUAGGGCUAGAAGUCGGCCUGCAGCAC [197-B2 Spiegelmer]", "values": [{"measurement": "Kd", "setting": "[1]", "result": 0.9, "unit": "nM"}]}, {"sequence": "GCGUGGUGUGAUCUAGAUGUAUUGGCUGAUCCUAGUCAGGUACGC [193-G2-012 aptamer (D)]", "values": [{"measurement": "Kd", "setting": "[2]", "result": 0.3, "unit": "nM"}]}, {"sequence": "AGCGUGGUGUGAUCUAGAUGUAUUGGCUGAUCCUAGUCAGGUACGCU [193-G2-001 Spiegelmer]", "values": [{"measurement": "Kd", "setting": "[1]", "result": 0.5, "unit": "nM"}]}, {"sequence": "CGGGAGGUUAGGGCUAGAAGUCGGUCCCG [191-D5-007 Spiegelmer]", "values": [{"measurement": "Kd", "setting": "[1]", "result": 0.8, "unit": "nM"}]}, {"sequence": "CGGGAGGUUAGGGCUAGAAGUCGGUCCCG [191-D5-007 aptamer (D)]", "values": [{"measurement": "Kd", "setting": "[2]; somewhat better than 191-D5-001 in competition", "result": 2.2, "unit": "nM"}]}, {"sequence": "GAGAUAGGGGUUAGGGCUUAAAGUCGGCUGAUUCUC [190-A3-004 Spiegelmer]", "values": [{"measurement": "Kd", "setting": "[1]", "result": 4.7, "unit": "nM"}]}, {"sequence": "GCUGUGAAAGCAACAUGUCAAUGAAAGGUAGCCGCAGC [192-A10-001 aptamer (D)]", "values": [{"measurement": "Kd", "setting": "[2]; 1 mM Mg, 1 mM Ca, pH 7.4", "result": 1.5, "unit": "nM"}]}, {"sequence": "AGCGUGGCGAGGUUAGGGCUAGAAGUCGGUCGACACGCU [191-D5-001 Spiegelmer]", "values": [{"measurement": "Kd", "setting": "[1]; FIG. 21 cited here is labelled 191-D5-007", "result": 0.8, "unit": "nM"}]}, {"sequence": "AGCGUGGUGUGAUCUAGAUGUAUUGGCUGAUCCUAGUCAGGUACGCU [193-G2-001 aptamer (D)]", "values": [{"measurement": "Kd", "setting": "[2]; better than 192-A10-001 in competition", "result": 0.3, "unit": "nM"}]}]}
